Here are results for one protein from PMC5026608.

Substrate in data set [1]: C[S+](CC[C@H](N)c1nn[nH]n1)C[C@H]1O[C@@H](n2cnc3c(N)ncnc32)[C@H](O)[C@@H]1O
The experiment in a line: methyltransferase assay, HPLC / A410. The format is biochemical, Streptomyces peucetius. As to conditions: saturating ClNP 1.5 mM, 100 mM Tris pH 8.0, 37 °C, methyl donor.

Substrate in the data set “purified protein”: C[S+](CC[C@H](N)C(=O)O)C[C@H]1O[C@@H](n2cnc3c(N)ncnc32)[C@H](O)[C@@H]1O
The experiment in a line: purified protein. The following applies: saturating ClNP 1.5 mM, 100 mM Tris pH 8.0, 37 °C, methyl donor.

B1: DnrK (Streptomyces peucetius) (protein)
chain: MTAEPTVAARPQQIDALRTLIRLGSLHTPMVVRTAATLRLVDHILAGARTVKALAARTDTRPEALLRLIRHLVAIGLLEEDAPGEFVPTEVGELLADDHPAAQRAWHDLTQAVARADISFTRLPDAIRTGRPTYESIYGKPFYEDLAGRPDLRASFDSLLACDQDVAFDAPAAAYDWTNVRHVLDVGGGKGGFAAAIARRAPHVSATVLEMAGTVDTARSYLKDEGLSDRVDVVEGDFFEPLPRKADAIILSFVLLNWPDHDAVRILTRCAEALEPGGRILIHERDDLHENSFNEQFTELDLRMLVFLGGALRTREKWDGLAASAGLVVEEVRQLPSPTIPYDLSLLVLAPAATGA
What is called Km is the concentration of substrate that gives half-maximal velocity. In general, kcat refers to the number of substrate molecules converted per active site and unit of time at saturation. On to B1, for which, in data set [1], the Km is 335 ± 40 µM and the kcat was found to be 0.000517 ± 1.67e-05 s⁻¹. In “purified protein”, the Michaelis constant (Km) was found to be 138 ± 7 µM and the kcat is 0.000283 s⁻¹.
